Experimental data from the DeepSol protein solubility set.

Experiment: soluble on expression in E. coli; label from the status in PepcDB or PDB records

Row | Sequence | soluble on expression in E. coli
1 | MVRKGCNSLVRAEKILTHIAWVGMASYMELLNKFQYPKSSLLNLLNVMVDCGFLIKNKNGYYSLGIKNYELGCQALHRQNIFEVTKRPMQELSLKSGLVCHLGAMESISAIYLDKIESPDSVPTSKSWIGKKLELHITALGKALLAWKTREELDYFLEALTLTPHTRNTFTDKKLFLEELQKTRLRGWAIDNEESTYGAVCLSMPVFNMYNRVNYAISLSGDPVVYSGNKIDSYLELLRKCAEQISYGLGYRNENEHLRKGN | soluble
2 | MVRKVLIIGGGFSGMAAAIQMRKAGIDVDLVEIDPNWRPEGAGITVNGPTLRALETIGVFDEFARRGFTSSGVDLFTPTGQKIGEIPTPKVAGSDVPGGGGIMRPELGRILADATRGSDVSVRVGCTYTAIEQTGDQVTVAFTDGTTDTYDLVVAADGVHSKTRERFFPEVKPPQYIGQGVWRTVLPRPAEIVRPRMWLGGTVKVGVNPVSQTHLYMFITEARPEKTNLDPATFPDLVTSMLKSFPDPIVQSLIPHVFAAEAAIDYRPLANLLVPAPWNRGRVILIGDTVAATTPHLASGAGIGIESGIILAEELAKAATLQDAFDGFHARRWERCRMVIENSERLCRIEMENGDKAEHARIMRESVMALTQPILEHHHHHH | soluble
3 | MVRNLVIDITKKPTQNIPPTNEIIEEAITELNVDELLDRLFEKDESGEVITPSRIAKMLEEKAFEIYKEYEKQVREAYLSAGYSREKLEQSFQQARFSRGGKAFEIIFTKLLNKFGIRYEHDRVIKIYDYITEGEKPAFIIPSVRTFLNDPSSAILITVKRKVRERWREAVGEAQILRNKFGDEINFWFVGFDEEFTIYSAIAMLDNGIDRVYVIDGRYDSLIEEIKRISDPNFNEDKYIQKIRRFSDIFDDIIQFLNKHGNKKRGKQLTLV | soluble
4 | MVRPPPFEFRPARPPGTRALQLEVITNIIWENAPMADLDALRSRFAHALAGATAPGATAGAGPGSGPDPAPYADNLLARWQEPQRRYHTLAHLTAVLDRVDVLAEHADDVAVVRLAAWFHDAVYQPDRSENEERSARLAERALPEAGVPAAKTAEVARLVRLTVTHAPAGDDRDGQVLCDADLAVLASPPSAYAAYTAAVREEYHFVPNEAFREGRAAILRQLLDLPSLFHTPYGRQEWEATARHNLTGELEMLSLPDTPDVLEHHHHHH | not soluble
5 | MVRTINLYYNNRTVQAIVELKNKPARWHKAKKVQLTPGQTEVKIDLPLPIVASNLMIEFADFYENYQASTETLQCPRCSASVPANPGVCGNCGENVYQCHKCRSINYDEKDPFLCNACGFCKYARFDFMLYAKPCCAVDPIENEEDRKKAVSNINTLLDKADRVYHQLMGHRPQLENLLCKVNEAAPEKPQVVPRCKGHLDKGLGLDQKTAS | not soluble
6 | MVRTITVASGKGGTGKTTITANLGVALAQLGHDVTIVDADITMANLELILGMEGLPVTLQNVLAGEARIDEAIYVGPGGVKVVPAGVSLEGLRKANPEKLEDVLTQIMESTDILLLDAPAGLERSAVIAIAAAQELLLVVNPEISSITDGLKTKIVAERLGTKVLGVVVNRITTLGIEMAKNEIEAILEAKVIGLIPEDPEVRRAAAYGKPVVLRSPNSPAARAIVELANYIAGGAKKKVPAEVKEKKKEGALAKMLRIFRRR | soluble
7 | MVRVVRHSRGTCNRGLYEVRELARNRTLQQWGVEDSAELYGIRNWGAGYFDVAQNGDVVVYPFGHNRGPAVSIPEIIGGMRERGYDMPVLLRIENILDSQITSLHTSFRNAIGSLGYKGEYRGIFPIKVNQQQQVVEKIAQFGSHYHHGLEVGSKAELIAAVSQLRDREACLVCNGYKDEEFIDLGLHAVRLGFMCIFVLEMPGELDLILERGEALGVKPIIGVRAKLSVKAGGHWTDSGGERSTFGLTTSQIVDVVDRLKEKGMLDCFKLLHYHLGSQVPNIRDIRAAVMEACRIYAGLVQEGAAMGFLDLGGGLAVDYDGSHTNFVSSRNYTLDEYCADIVEAVMTTLDEQNIPHPHIVTESGRATVAYYSMLLFNILDVSRVEIGNLPDALPEDTPEPVRNMREVLAGMTLRNLQECYNDALYYRDAVRQLFLTGQVTLRQRTLSERLFWAIMKRIAQEKQKLKHVPKDLAEIDVALADIYYGNFSVFQSLPDSWAIDQLFPVMPVHRLQELPSRQGILSDITCDSDGRIDHFIDPQGMKGTLDLHPLRDGEEYYLGVFLVGAYQETLGDLHNLLGDTNVVSVRVHEDGTYEFVREIRGDSVADILSYVEYDPRRIYEDIRELAERAVREGRITASDRFRVMQAYEDGLRGYTYFERLEHHHHHH | not soluble
8 | MVSLSDLASYPICRRCAGRIFAMVGTGLTNLERGSMLEFSIKCEKNDPEFNFADPQNCEICHGIFDKFSVFLSLVEDKLKEIEYSTFVVGSVFPKEWIELENKIQEAFGAHGESIKKEFNREFGKYITAKTGKEYRKEDPDITIAVNVEYEFVNVSIKSLFIYGKYRKYRRDMPQTRWIHKKDGDSIESIIGEAALRIAGGKNYYLHGSGREDVDVRMLGNGREFVIEVEAPIMRTFDLSILSETVNRSMKGVEIFDLSFVDRKTVKEIKEEKHSKVYDCIIEGDTDIDKLKLEEACTEMNGKNIYQRTPLRVAQRRSDLIRTRKIERMELVAVEGKEAEIVVQAEAGTYIKELISGDSGRTNPSLSSKYGSQLNVKELDVIKICRGELEHHHHHH | not soluble
9 | MVSMLLVGRIGKSVGLNGGLRLHLESDFPECLKKGVKVSVAPLNAFSCVSSFKEYIIHSYEHAKNLLFLETIQTPEKAKELTNLGLFMSEAESKKLCVLKEGEFFYCDLVGLSVVEENEILGKVIEIQRISQTDYFLVETTLNLVEKGLAKIFLIPYRDFYIQEILLQDKKITTHNAKTLLENSLEHHHHHH | soluble
10 | MVSPLKTRCCSPSSQQQASEAREIEQPSTVWELDFYSRPVYGKDNKRIWELIVVDESFLLCHVESVPNDMINSAELRKRVERLLEQVTVKPKVVKFSRMPMFNMISLALKDLGFEVKPSRRTYRLYHVLRDREANIYSKMPGYRSENTLSTSYLYSTERLPDALRGEKFAFCTADYSFLYELQSSDTIPYCDIFNTGDSILLEKELPGIIVYSERADSLASWTAGAEVSFIKFREEELELVLECGINSHYRLAKIAEDHRLVEEAKTFEQMKWHMKGFHFYAIQSLKETSGTSHIKGLWLLNDFMEQ | not soluble
11 | MVSVNENALPLVERMIERAELLNVEVQELENGTTVIDCGVEAAGGFEAGLLFSEVCMGGLATVELTEFEHDGLCLPAVQVTTDHPAVSTLAAQKAGWQVQVGDYFAMGSGPARALALKPKETYEEIDYEDDADVAILCLESSELPDEDVAEHVADECGVDPENLYLLVAPTASIVGSVQVSARVVETGLYKLLEVLEYDVTRVKYATGTAPIAPVADDDGEAMGRTNDCILYGGTVYLYVEGDDELPEVVEELPSEASEDYGKPFMKIFEEADYDFYKIDPGVFAPARVVVNDLSTGKTYTAGEINVDVLKESFSL | soluble
12 | MVTPREPKKRTTRKKKDPNAPKRALSAYMFFANENRDIVRSENPDITFGQVGKKLGEKWKALTPEEKQPYEAKAQADKKRYESEKELYNATLA | soluble
13 | MVTVPEGYEANVIYALGDSINPRVGDWDDNNIPSGPSFQFRSGDCHDGMHYFGLNTSTNRFDETVSAQGLLVMNHEYINQTFLHPKGPTKVDGRRPEDEVIRETNAHGVSVVHIKKDPTTQKVEIVKNSIFNRRITASTVMEFAGAAAGSSLLATRFSPAGRQTRGTHNNCGNGYTPWGTYLTTEENFIGYFQRSGSDEYARTDAEKIALKRYGLGVKKDEPYLYEKDEKGAPKKDKDGKIIYLKDKNGELIPNVDEQGRQIYLGTSSRYGWETAIGQVESQDLYDRWNADVKAAQATQDYRNGPNTFGWMVEIDPFDGRQNPVKRTSLGRFAHEDSACRAVVGQPLAFYMGDDSRGEYIYKFVSTAVWDTKDINGGYTAGDKYMNAGKLYVAKFNNDGSGQWIELAYGKNGLNESNTTYPFKSQADVVTFARLAADSVGATKMDRPEWCTVNPVNGEIYVTLTNNSNRGKDYATDAANPRNYTDLYAGTKEQKGNVNGHIIRFKETDDKTTAETFKWDIYLFGAEASMASNINLSGLTDNNDFSSPDGMWFDPRGVLWIETDDGAYTDVTNCMMLAALPGQIGDGGTLEHHHHHH | soluble
14 | MVVFGTTFFNFDSFIGKTDSIEIIGKSVFPYCYHNILPLLNDSGRYSLGDARRPLHETAVLVEDVVHTQLINLLQQAAEVSQLRGARVITPEDLLFLMRKDKKKLRRLLKYMFIRDYKSKIVKGIDEDDLLEDKLSGSNNANKRQKIAQDFLNSIDQTGELLAMFEDDEIDEVKQERMERAERQTRIMDSAQYAEFCESRQLSFSKKASKFRDWLDCSSMEIKPNVVAMEILAYLAYETVAQLVDLALLVRQDMVTKAGDPFSHAISATFIQYHNSAESTAACGVEAHSDAIQPCHIREAIRRYSHRIGPLSPFTNAYRRNGMAFLAC | not soluble
15 | MWAFPERFEGRHVRLEPLALAHLPAFLRHYDPEVYRFLSRAPVAPTEEALRAHLEGLLGEPGRVNWAILFGKEVAGRISVIAPEPEHAKLELGTMLFKPFWGSPANKEAKYLLLRHAFEVLRAERVQFKVDLRNERSQRALEALGAVREGVLRKNRRLPDGAFRDDVVYSVLKEEWPGVKARLEARLYGASGNP | soluble
16 | MWEPSKRLKPVPILPELKEIGEQLQAQREQAMIEWAQTGYVKKLKARLVGRIIHGLGAGHIRETSLTIHPVYGLPYIPASSVKGLVRHWFIEAYCEGEEKQLNEHEIGREIFGTQGNKGIVQFHDIFLIESLQLTGDVLAVHMKEYYEGNRAATDDQKPVPVSFWTVMATEVDIYLTANRSAPQNDEETVRLLEAAALWTQQALTEWGIGSKTSSGYGRFAEVYDVTEMEFLPIVQKEQVRLEQQKKEREMLEQ | not soluble
17 | MWLKVGGLLRGTGGQLGQTVGWPCGALGPGPHRWGPCGGSWAQKFYQDGPGRGLGEEDIRRAREARPRKTPRPQLSDRSRERKVPASRISRLANFGGLAVGLGLGVLAEMAKKSMPGGRLQSEGGSGLDSSPFLSEANAERIVQTLCTVRGAALKVGQMLSIQDNSFISPQLQHIFERVRQSADFMPRWQMLRVLEEELGRDWQAKVASLEEVPFAAASIGQVHQGLLRDGTEVAVKIQYPGIAQSIQSDVQNLLAVLKMSAALPAGLFAEQSLQALQQELAWECDYRREAACAQNFRQLLANDPFFRVPAVVKELCTTRVLGMELAGGVPLDQCQGLSQDLRNQICFQLLTLCLRELFEFRFMQTDPNWANFLYDASSHQVTLLDFGASREFGTEFTDHYIEVVKAAADGDRDCVLQKSRDLKFLTGFETKAFSDAHVEAVMILGEPFATQGPYDFGSGETARRIQDLIPVLLRHRLCPPPEETYALHRKLAGAFLACAHLRAHIACRDLFQDTYHRYWASRQPDAATAGSLPTKGDSWVDPS | not soluble
18 | MWQQKSFQQNEKGVLYLVPTPIGNLEDMTFRAIRILKEADLIAAEDTRQTKKLCNYFEIETPVMSYHEHNKEVSGKKILEKLDEGKTVALVSDAGMPCISDPGYDIVVEAVAEQYHVIPLPGANAALTALIASGLQTKQFYFYGFLQRNKKERKMELEKLRYVQTTMMFYEAPHRLDDTLISMQEVLGNREIVLCRELTKKFEEFIRGTVEEAIEWTKQNEVRGEFCILVAGSTEEPAPEEQWWESISVYNHIEHYINEKGMNSKEAIKTVAKDRDLSKRDVYQIYHVDKK | soluble
19 | MWRIELKHAVNWELKMKFFVLPELPTPDVVESGVWRRAIVLDGRAVAVMAYPESERTIVVEGNFENREWEAVRRKLVEYLGLQNPEELYRFMDGDEKLRMLKNRFYGFGRAGLMSMSVFEGIAKAIIQQQISFVVAEKLAAKIVGRFGDEVEWNGLKFYGFPTQEAILKAGVEGLRECGLSRRKAELIVEIAKEENLEELKEWGEEEAYEYLTSFKGIGRWTAELVLSIALGKNVFPADDLGVRRAVSRLYFNGEIQSAEKVREIARERFGRFARDILFYLFLYDRFFSKKTELV | soluble
